Tests used:
Test in all cases: SPR (BIAcore 3000), mAb 1B7 immobilised on CM5 chip, toxin injected
[1] = target: T1, PTx-S1-220 Y148A (Bordetella pertussis, UniProt P04977 35-254)
T1 chain: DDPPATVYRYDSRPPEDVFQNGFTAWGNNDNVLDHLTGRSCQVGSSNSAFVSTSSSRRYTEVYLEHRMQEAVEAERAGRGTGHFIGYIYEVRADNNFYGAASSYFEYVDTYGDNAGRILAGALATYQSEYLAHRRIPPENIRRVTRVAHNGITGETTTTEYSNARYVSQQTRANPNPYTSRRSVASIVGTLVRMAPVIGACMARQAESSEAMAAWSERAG

[2] = target: T2, PTx-S1-220 T153A (Bordetella pertussis, UniProt P04977 35-254)
T2 chain: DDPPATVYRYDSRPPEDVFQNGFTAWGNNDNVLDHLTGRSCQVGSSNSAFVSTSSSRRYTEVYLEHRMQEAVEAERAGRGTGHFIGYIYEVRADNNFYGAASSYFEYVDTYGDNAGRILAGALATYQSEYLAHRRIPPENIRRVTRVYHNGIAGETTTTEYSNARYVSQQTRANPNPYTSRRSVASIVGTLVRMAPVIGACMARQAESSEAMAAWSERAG

[3] = target: T3, PTx-S1-220 T81A (Bordetella pertussis, UniProt P04977 35-254)
T3 chain: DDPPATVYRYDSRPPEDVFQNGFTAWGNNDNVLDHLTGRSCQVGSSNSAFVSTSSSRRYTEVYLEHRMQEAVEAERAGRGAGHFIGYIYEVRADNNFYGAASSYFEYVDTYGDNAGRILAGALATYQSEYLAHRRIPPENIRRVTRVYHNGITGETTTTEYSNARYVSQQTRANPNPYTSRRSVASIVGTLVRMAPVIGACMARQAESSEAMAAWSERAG

[4] = target: T4, PTx-S1-220 T156A (Bordetella pertussis, UniProt P04977 35-254)
T4 chain: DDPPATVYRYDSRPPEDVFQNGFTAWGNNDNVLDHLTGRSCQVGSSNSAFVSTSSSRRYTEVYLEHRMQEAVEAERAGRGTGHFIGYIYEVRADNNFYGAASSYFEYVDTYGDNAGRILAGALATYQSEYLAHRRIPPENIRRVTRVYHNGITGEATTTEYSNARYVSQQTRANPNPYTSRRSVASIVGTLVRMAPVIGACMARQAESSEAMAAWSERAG

[5] = target: T5, PTx-S1-220 H83A (Bordetella pertussis, UniProt P04977 35-254)
T5 chain: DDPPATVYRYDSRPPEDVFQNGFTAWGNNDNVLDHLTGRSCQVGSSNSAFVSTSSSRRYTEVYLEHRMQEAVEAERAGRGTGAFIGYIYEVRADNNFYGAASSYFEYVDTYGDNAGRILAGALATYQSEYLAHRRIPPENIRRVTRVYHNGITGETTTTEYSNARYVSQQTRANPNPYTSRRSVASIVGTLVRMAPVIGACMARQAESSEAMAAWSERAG

[6] = target: T6, PTx-S1-220 E155A (Bordetella pertussis, UniProt P04977 35-254)
T6 chain: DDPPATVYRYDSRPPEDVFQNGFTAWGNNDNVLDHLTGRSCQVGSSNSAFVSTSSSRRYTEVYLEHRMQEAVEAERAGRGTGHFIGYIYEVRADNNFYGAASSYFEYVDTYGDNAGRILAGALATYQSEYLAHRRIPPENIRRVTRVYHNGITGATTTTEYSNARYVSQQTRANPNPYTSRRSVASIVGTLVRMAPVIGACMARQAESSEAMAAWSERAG

[7] = target: T7, PTx-S1-220 N176A (Bordetella pertussis, UniProt P04977 35-254)
T7 chain: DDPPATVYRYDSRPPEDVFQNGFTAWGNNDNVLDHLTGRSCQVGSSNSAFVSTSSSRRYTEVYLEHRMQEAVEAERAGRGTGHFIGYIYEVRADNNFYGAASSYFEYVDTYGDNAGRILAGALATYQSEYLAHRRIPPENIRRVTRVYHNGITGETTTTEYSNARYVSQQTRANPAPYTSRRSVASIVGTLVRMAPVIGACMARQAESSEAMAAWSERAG

[8] = target: T8, PTx-S1-220 Y161A (Bordetella pertussis, UniProt P04977 35-254)
T8 chain: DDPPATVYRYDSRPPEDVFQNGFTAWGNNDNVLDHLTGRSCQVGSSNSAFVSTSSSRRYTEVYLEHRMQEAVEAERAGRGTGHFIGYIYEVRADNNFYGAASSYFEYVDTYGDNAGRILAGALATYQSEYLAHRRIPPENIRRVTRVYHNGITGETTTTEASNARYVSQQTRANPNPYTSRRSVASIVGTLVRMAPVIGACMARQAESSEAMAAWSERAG

[9] = target: T9, PTx-S1-220 (truncated PTx-S1, residues 1-220, strain Tohama I, variant B) (Bordetella pertussis, UniProt P04977 35-254)
T9 construct: also called WT PTx-S1-220; PTx-S1B
T9 sequence: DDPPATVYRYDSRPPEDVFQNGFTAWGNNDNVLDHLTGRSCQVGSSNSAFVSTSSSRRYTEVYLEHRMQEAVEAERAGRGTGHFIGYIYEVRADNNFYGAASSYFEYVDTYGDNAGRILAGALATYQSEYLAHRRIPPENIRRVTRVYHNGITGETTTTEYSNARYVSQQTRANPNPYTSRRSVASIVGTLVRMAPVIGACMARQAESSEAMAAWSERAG

B1: murine monoclonal antibody 1B7 (antibody, V domains shown)
VH: EVQLQQSGSELVRPGASVKLSCKASGYKFTSYWMHWVKQRPGQGLEWIGNIFPGSGSTNYDEKFNSKATLTVDTSSNTAYMQLSSLTSEDSAVYYCTRWLSGAYFDYWGQGTTLTVSS
VL: DIQMTQSPALMSASPGEKVTMTCSASSSVSFMYWYQQKPRSSPKPWIYLTSNLPSGVPARFSGSGSGTSYSLTISSMEAEDAATYYCQQWSSHPPTFGSGTKLEIKR
notes: also called mAb 1B7; 1B7 mAb
- koff [1]: 0.029 s⁻¹
- koff [2]: 0.002 s⁻¹
- koff [3]: 0.0017 s⁻¹
- koff [4]: 0.0011 s⁻¹
- koff [5]: 0.01 s⁻¹
- koff [6]: 0.0011 s⁻¹
- koff [7]: 0.0011 s⁻¹
- koff [8]: 0.0013 s⁻¹
- koff [9]: 0.0014 s⁻¹

— US20140193401A1 (published 2014)
